The values below come from patent US12251377B2, “Anticoagulant compositions and uses thereof” (University of Rochester, priority 2019, dated 2025).

Data set [1] has as its system coagulation of human blood. The data set can be described thus: Cardiopulmonary bypass circuit simulation (arterio-venous loop). As to conditions: whole duration of the bypass circuit experiment, 37° C. In kind it is biochemical. The procedure:
(§1) In the examples below, studies were carried out to examine effects of dabigatran on coagulation of human blood. The studies were approved by the Institutional Review Board (University of Rochester RSRB, Rochester, NY) and informed consent was obtained from all subjects. Six healthy non-pregnant donors between 18-70 years old were recruited for the study. Subjects were excluded from the recent infections, disorders of immune system, hematological disorders including prior history of clotting issues, malignancies. Current medications and herbal supplements were recorded. Standard phlebotomy procedures performed by trained personal were used to collect no more than 250 ml of whole blood in two months. The collected blood was anticoagulated with 0.109 M Na citrate and tested within four hours. Dabigatran was purchased from CLEARSYNTH (Ontario, Canada). The study was initiated in three steps: Effect of high-dose Dabigatran on coagulation of human blood in-vitro; Evaluation of the anticoagulant effect of Dabigatran in the Chandler Loop System; and Anticoagulation effect of Dabigatran in the Cardiopulmonary bypass circuit simulation. […]

For data set [2] the following is noted: cited from earlier work.
Data set [3] deals with coagulation of human blood. The data set can be described thus: Thromboelastography, TEG 5000 rapid TEG test, clotting/reactive time (R). In kind it is biochemical. As to conditions: human blood in vitro. The procedure:
In the examples below, studies were carried out to examine effects of dabigatran on coagulation of human blood. The studies were approved by the Institutional Review Board (University of Rochester RSRB, Rochester, NY) and informed consent was obtained from all subjects. Six healthy non-pregnant donors between 18-70 years old were recruited for the study. Subjects were excluded from the recent infections, disorders of immune system, hematological disorders including prior history of clotting issues, malignancies. Current medications and herbal supplements were recorded. Standard phlebotomy procedures performed by trained personal were used to collect no more than 250 ml of whole blood in two months. […]
Methods: Dabigatran (CLEARSYNTH, Catalog No. CS-O-03403; CAS number 211914-51-1) was initially dissolved in 0.1M HCL to 16.6 mg/ml, followed by diluting to 240 μg/ml, using 50% DMSO. […] TEG 5000 (rapid TEG test) and ROTEM (ex-tem test) were used to measure anticoagulation and the corresponding reactive time (R) and coagulation time (CT) were recorded.
(§2) Methods: Dabigatran was initially dissolved in 0.1 M HCL, followed by diluting 1:1 with DMSO/H2O to prepare four stock solutions: […]. […] Blood clotting was monitored for 120 minutes. […]
Each of the dabibatran-containing blood sample described above was examined for clotting time R measured by TEG in the manner described above.

For data set [4], the system named is coagulation of human blood. The data set can be described thus: Chandler Loop System, clot formation in circulating blood. In kind it is biochemical. The following applies: Idarucizumab added after 2 hours of circulation; immediate clotting of the blood in the loop. The procedure: as §1, §2

In the case of `[H]/N=C(/N)c1ccc(NCc2nc3cc(C(=O)N(CCC(=O)O)c4ccccn4)ccc3n2C)cc1` [Dabigatran], the “plasma levels of Dabigatran during the experimental procedure (Mass Spectrometry)” value in data set [1] is “remain stable”. In data set [2], the “normal concentrations found in patients” value is 180 ng/mL.

B1: Idarucizumab: anti-dabigatran antibody, reversal agent (antibody, chains of the INN, looked up, V domains shown)
VH: QVQLQESGPGLVKPSETLSLTCTVSGFSLTSYIVDWIRQPPGKGLEWIGVIWAGGSTGYNSALRSRVSITKDTSKNQFSLKLSSVTAADTAVYYCASAAYYSYYNYDGFAYWGQGTLVTVSS
VL: DVVMTQSPLSLPVTLGQPASISCKSSQSLLYTDGKTYLYWFLQRPGQSPRRLIYLVSKLDSGVPDRFSGSGSGTDFTLKISRVEAEDVGVYYCLQSTHFPHTFGGGTKVEIK
modifications: Fab
notes: anti-dabigatran antibody, reversal agent
Consider B1, for which the “reversal of the anticoagulation effect of Dabigatran” value in data set [3] (125 μg/ml Idarucizumab) is “successfully reversed”. The “Idarucizumab concentration required to reverse the highest concentrations of Dabigatran” value in data set [3] (highest Dabigatran concentrations) is listed as 2-4 times normal plasma concentrations. Besides, in data set [4], the “reversal of the anticoagulation action of Dabigatran in the Chandler loop” value is on record as “effectively reversed”.
